Measurements published in US20160031958A1, “METHODS AND COMPOSITIONS USEFUL IN MANIPULATING THE STABILITY OF RE1 SILENCING TRANSCRIPTION FACTOR” (OREGON HEALTH & SCIENCE UNIVERSITY, priority 2014, published 2016).

Legend:
neural progenitor cells = test: Cortical neuronal migration after in utero electroporation in rat embryos; format: in vivo; settings: cDNA electroporated in utero at E16, harvested E18, 6 embryos, 18 cortical slices
Method: REST protein lacking S861/864 (negative control) and wild-type REST (810-910) peptide (experimental) were expressed in the lateral ventrical of the cortex of rat embryos (E16) by injection and in utero electroporation of the respective cDNA into neural stem cells. The embryos were then allowed to gestate for 48 hours (E18) prior to harvesting. Panel 1 and 2 are representative E18 cortical brain slices expressing REST protein lacking S861/864 (negative control) and wild-type REST protein (experimental).
FIG. 11B is a plot showing that the effect of wild type REST (810-910) peptide on neuronal migration is quantitative. […] No significant difference in neural stem cell migration between the control REST protein lacking S861/864 (negative control) and the wild-type REST (810-910) peptide (experimental) in the SVZ and the intermediate zone (IZ) (Boxes 1 and 2). […] Error bars represent standard deviation, (**P<0.001, *P<0.01 unpaired t test).

endogenous REST protein = test: Western blot of endogenous REST protein levels in transfected E12.5 neurospheres; format: cell-based; settings: E12.5 mouse cortical neurospheres after transfection; MG132 4 h; compared to control peptides
Method: FIG. 7B is an image of a Western blot showing endogenous REST protein levels in E12.5 neurospheres after transfection. Lane 1, empty vector; lane 2, control (595-694) peptide; lane 3, REST(810-910) S861/864A peptide; lane 4, REST(810-910) WT peptide; lane 5, empty vector with MG132 treated for 4 h. The blot was probed with anti-mouse-REST antibody and anti-tubulin (loading control) antibodies.
There is a significant difference between REST (810-910) compared to control (595-694) peptide (n=5, p=0.0021) and REST(810-910) compared to S861/864A REST(810-910) (n=5, p=0.046). The difference between MG132 and REST(810-910) is not significant (n=5, p=0.7996, Sidak's multiple comparison test, error bars represent 95% confidence interval).
The Examples above used the REST (810-910) reporter as a surrogate substrate for signaling molecules that target S861/S864 on full-length REST. […]
Whole cell lysates were prepared and immunoprecipitated following the procedures in Ballas N et al, 2001 supra and Nesti E et al, Mol Biol Cell 15, 4073-4088 (2004); incorporated by reference herein. Western blots were performed by standard procedures using antibodies described below and analyzed using anti IgG conjugated to infrared dyes (ThermoFisher) on an Odyssey® infrared fluorescence imager (LiCor). […] Infrared fluorescence was detected on the Odyssey® imager (LiCor) in the 700 nm channel. […]

E12.5 neurospheres = test: Neuronal differentiation of E12.5 neurospheres (MAP2 immunostaining); format: cell-based, mouse; settings: neurospheres differentiated 10 d, versus control (595-694) peptide, p<0.0001
Excerpt: FIG. 8A is a photomicrograph of representative immuno-labeled E12.5 neurospheres transfected with REST (810-910)- or control peptide-IRES-GFP, sorted, and then allowed to differentiate for 10 d in culture. White, DAPI nuclei; Red, MAP2 antibody.
Results are from three different transfections. Fields were selected from multiple places on the cover slip, number of cells indicated on bars (p<0.0001, unpaired t test).
Previous studies indicate that persistent REST expression in progenitors inhibits neuronal differentiation. Therefore, it was assessed whether stabilization of REST, via expression of the unmutated REST (810-910) peptide in neural progenitors, would also hinder neuronal differentiation. Mouse neurosphere cultures were immunostained for Microtubule Associated […] 2 (MAP2), a marker of mature neurons, at days 0 and 10 post-transfection. On day 0 there was negligible MAP2 signal and no significant difference between the two conditions.
HEK293T cells were transfected using Lipofectamine 2000 (Life Technologies) following the manufacturer's instructions. PC12 tet, PC12 tet-on FLAG-REST, and HEK293T cell lines were maintained as described in Ballas N et al 2001 supra. […]

B1: REST (810-910) peptide: peptide encoding amino acids 810-to-910 of REST with unmutated S861/S864, expressed from cDNA (protein)
chain: ISKKPPLRKDKKEKSNMQSERARKEQVLIEVGLVPVKDSWLLKESVSTEDLAPPAPPLPKENLREEASGDQKLLNTGEGNKEAPLQKVGAEEADESLPGLA
Migration of neural progenitor cells from the SVZ toward the cortical plate (CP) (neural progenitor cells): significantly less migration to the CP
Endogenous full-length REST protein levels (endogenous REST protein): significantly stabilized endogenous full-length REST protein
MAP2-positive cells (E12.5 neurospheres): fewer MAP2-positive cells
